Holding throughout (test): cell-based or functional assay
In test [1] the target is truncated BCMA (amino acid 1 to 98) on SKOV3 cells (human) (UniProt Q02223).
Test [2] addresses BCMA on H929 myeloma cells (human) (UniProt Q02223).
Test [3] deals with CD19 on GFP/Luc+ Raji cells (human) (UniProt P15391).
The target of test [4] is truncated CD19 (amino acid 1 to 342) on SKOV3 cells (human) (UniProt P15391).
Chain of truncated CD19 (amino acid 1 to 342) on SKOV3 cells (human) (P15391 20-342 limits assumed, form in doubt): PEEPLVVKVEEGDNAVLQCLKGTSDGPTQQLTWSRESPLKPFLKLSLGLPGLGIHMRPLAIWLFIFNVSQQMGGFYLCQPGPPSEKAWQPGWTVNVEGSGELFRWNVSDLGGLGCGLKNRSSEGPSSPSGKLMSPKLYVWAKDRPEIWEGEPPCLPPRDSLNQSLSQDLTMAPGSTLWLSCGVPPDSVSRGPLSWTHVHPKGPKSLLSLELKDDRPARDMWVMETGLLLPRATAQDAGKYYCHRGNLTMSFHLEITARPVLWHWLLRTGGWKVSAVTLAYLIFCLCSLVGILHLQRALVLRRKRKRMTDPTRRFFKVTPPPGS

Chain of BCMA on H929 myeloma cells (human) (Q02223 whole entry): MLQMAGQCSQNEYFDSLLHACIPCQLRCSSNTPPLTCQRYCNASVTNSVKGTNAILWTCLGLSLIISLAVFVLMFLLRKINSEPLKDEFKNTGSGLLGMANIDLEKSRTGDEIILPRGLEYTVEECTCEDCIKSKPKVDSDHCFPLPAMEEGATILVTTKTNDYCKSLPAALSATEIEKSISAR
Chain of CD19 on GFP/Luc+ Raji cells (human) (P15391 20-556): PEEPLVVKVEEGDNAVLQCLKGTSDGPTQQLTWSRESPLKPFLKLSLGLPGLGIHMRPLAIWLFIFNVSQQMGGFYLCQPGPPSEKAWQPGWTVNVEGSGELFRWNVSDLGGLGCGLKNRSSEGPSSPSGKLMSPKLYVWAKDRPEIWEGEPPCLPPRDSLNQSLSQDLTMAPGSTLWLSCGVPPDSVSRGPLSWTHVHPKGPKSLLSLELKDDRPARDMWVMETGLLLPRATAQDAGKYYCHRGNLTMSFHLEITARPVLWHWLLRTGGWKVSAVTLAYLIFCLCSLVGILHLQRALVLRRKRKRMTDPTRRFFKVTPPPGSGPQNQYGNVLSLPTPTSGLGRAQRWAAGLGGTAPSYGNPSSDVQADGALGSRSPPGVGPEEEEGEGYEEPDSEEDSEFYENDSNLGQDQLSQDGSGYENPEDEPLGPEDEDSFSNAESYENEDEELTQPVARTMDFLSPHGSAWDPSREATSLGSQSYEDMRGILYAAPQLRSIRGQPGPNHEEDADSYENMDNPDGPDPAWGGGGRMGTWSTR
Chain of truncated BCMA (amino acid 1 to 98) on SKOV3 cells (human) (Q02223 1-98 limits assumed): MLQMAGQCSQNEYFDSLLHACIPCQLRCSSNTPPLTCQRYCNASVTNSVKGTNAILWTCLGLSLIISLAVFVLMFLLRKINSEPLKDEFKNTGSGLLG

In the case of “anti-BCMA-NKp30 chimeric antigen receptor of Example 3 (J6M0 scFv, hinge domain of CD28, NKp30 without immunoglobulin-like domain), on CAR-T cells of Example 3C (from UniProt O14931 129-201; P30273 19-86)”, the cytotoxicity, real-time cytotoxicity assay (xCELLigence), E:T 0.3:1 and 0.1:1, after 36 hours of co-culture in test [1] is 100%. In test [2], the cytotoxicity, flow cytometry with counting beads, E:T 0.1:1, 24 hours was found to be 73.5%; the cytotoxicity, flow cytometry with counting beads, E:T 0.3:1 and 1:1, 24 hours fell in the range of 80 to 85%.

With “anti-CD19-NKp30 chimeric antigen receptor of Example 1-5 (FMC63 scFv, (EAAAK)3 hinge, NKp30 without immunoglobulin-like domain), on CAR-T cells of Example 1-5C (from UniProt O14931 129-201; P30273 19-86)”, in test [3], the Specific cell lysis ratio (at E:T = 3:1), luciferase killing assay stood at 83.6%. Also, in test [4], the cytotoxicity, real-time cytotoxicity assay (xCELLigence), E:T 0.1:1 (fold against Comparative Example 1C) was more than 3.

On to “anti-CD19-NKp30 chimeric antigen receptor of Example 1-4 (FMC63 scFv, hinge domain of IgG4, NKp30 without immunoglobulin-like domain), on CAR-T cells of Example 1-4C (from UniProt O14931 129-201; P30273 19-86)”, for which the Specific cell lysis ratio (at E:T = 3:1), luciferase killing assay in test [3] turned out to be 51%.

As to “anti-BCMA chimeric antigen receptor of Comparative Example 3 (J6M0 scFv, hinge domain of CD8, transmembrane domain of CD8, 4-1BB, signal transduction domain of CD3ζ), on CAR-T cells of Comparative Example 3C (from UniProt P01732 183-206; Q07011 214-255; P20963 52-164)”, the cytotoxicity, flow cytometry with counting beads, E:T 0.1:1, 24 hours in test [2] was 74.8%.

The values are drawn from patent US20250108114A1.
